# Tested on: Escherichia coli TOP10
# Experiment: shrunken log2 fold change of peptide-encoding DNA abundance (4.5 h post-induction vs induction); higher = less antimicrobial activity (less host growth inhibition)
# Conditions: time post-induction: 4.5 h; library: site-saturation at positions 5, 18, 19, 20
# 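Further: peptides expressed intracellularly from a pBAD plasmid library in pooled LB shake-flask culture, induced with 0.3% L-arabinose, DNA abundance read by NGS, three biological replicates, DESeq2 with apeglm shrinkage.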
row,Sequence,shrunken log2 fold change
1,RRIRFRPPRLPRPRPRPYARPRP,0.0368
2,RRIRKRPPRLPRPRPRPKQCPRP,0.0637
3,RRIRWRPPRLPRPRPRPDTMPRP,0.19
4,RRIRVRPPRLPRPRPRPVKGPRP,-0.0226
5,RRIRMRPPRLPRPRPRPFTKPRP,-0.319
6,RRIRDRPPRLPRPRPRPNQQPRP,-0.12
7,RRIRLRPPRLPRPRPRPLFHPRP,-0.233
8,RRIRFRPPRLPRPRPRPMKDPRP,-0.47
9,RRIRYRPPRLPRPRPRPCGPPRP,-0.436
10,RRIRERPPRLPRPRPRPAHTPRP,-0.0788
11,RRIRFRPPRLPRPRPRPDRRPRP,-0.39
12,RRIRNRPPRLPRPRPRPAHGPRP,0.047
13,RRIRARPPRLPRPRPRPYWIPRP,-0.556
14,RRIRFRPPRLPRPRPRPWHRPRP,2.08
15,RRIRMRPPRLPRPRPRPHWWPRP,0.325
16,RRIRRRPPRLPRPRPRPSKPPRP,0.241
17,RRIRYRPPRLPRPRPRPGAVPRP,0.929
18,RRIRRRPPRLPRPRPRPFWFPRP,-0.138
19,RRIRDRPPRLPRPRPRPNMLPRP,0.0937
20,RRIRRRPPRLPRPRPRPCWKPRP,0.0297
21,RRIRQRPPRLPRPRPRPSNDPRP,-0.357
22,RRIRCRPPRLPRPRPRPYRWPRP,-0.141
23,RRIRFRPPRLPRPRPRPEGPPRP,0.0494
24,RRIRNRPPRLPRPRPRPAGVPRP,0.329
25,RRIRHRPPRLPRPRPRPVDRPRP,-0.0926

row,Sequence,shrunken log2 fold change
1,RRIRCRPPRLPRPRPRPTWRPRP,1.4
2,RRIRQRPPRLPRPRPRPDCRPRP,0.0305
3,RRIRIRPPRLPRPRPRPCPLPRP,-0.751
4,RRIRMRPPRLPRPRPRPQVVPRP,0.0936
5,RRIRFRPPRLPRPRPRPMMEPRP,-0.426
6,RRIRHRPPRLPRPRPRPQMHPRP,-0.00258
7,RRIRPRPPRLPRPRPRPHGQPRP,0.186
8,RRIRARPPRLPRPRPRPTHCPRP,0.518
9,RRIRSRPPRLPRPRPRPLFYPRP,-0.413
10,RRIRPRPPRLPRPRPRPHMSPRP,-0.27
11,RRIRHRPPRLPRPRPRPSCYPRP,-1.1
12,RRIRFRPPRLPRPRPRPHATPRP,-0.0624
13,RRIRFRPPRLPRPRPRPMSGPRP,-0.0751
14,RRIRNRPPRLPRPRPRPLACPRP,0.118
15,RRIRFRPPRLPRPRPRPAVCPRP,0.925
16,RRIRWRPPRLPRPRPRPWQRPRP,0.551
17,RRIRLRPPRLPRPRPRPNQLPRP,-0.407
18,RRIRRRPPRLPRPRPRPPCRPRP,1.09
19,RRIRTRPPRLPRPRPRPFFGPRP,0.0239
20,RRIRLRPPRLPRPRPRPAHMPRP,-0.0737
21,RRIRMRPPRLPRPRPRPSPPPRP,0.74
22,RRIRHRPPRLPRPRPRPRKFPRP,0.15
23,RRIRRRPPRLPRPRPRPRSHPRP,-0.033
24,RRIRQRPPRLPRPRPRPRPCPRP,0.409
25,RRIRFRPPRLPRPRPRPVSCPRP,-0.514

row,Sequence,shrunken log2 fold change
1,RRIRQRPPRLPRPRPRPKFSPRP,-0.914
2,RRIRIRPPRLPRPRPRPIWLPRP,-0.11
3,RRIRIRPPRLPRPRPRPGIAPRP,-0.184
4,RRIRMRPPRLPRPRPRPVITPRP,0.043
5,RRIRSRPPRLPRPRPRPVCQPRP,-0.569
6,RRIRARPPRLPRPRPRPGRHPRP,0.159
7,RRIRDRPPRLPRPRPRPINIPRP,-0.282
8,RRIRPRPPRLPRPRPRPQVYPRP,0.962
9,RRIRDRPPRLPRPRPRPLIRPRP,-0.0502
10,RRIRMRPPRLPRPRPRPHLGPRP,0.086
11,RRIRTRPPRLPRPRPRPYEIPRP,-0.453
12,RRIRRRPPRLPRPRPRPVQRPRP,0.254
13,RRIRCRPPRLPRPRPRPFFMPRP,-0.201
14,RRIRMRPPRLPRPRPRPWHKPRP,-0.00776
15,RRIRTRPPRLPRPRPRPAGGPRP,0.304
16,RRIRARPPRLPRPRPRPYAWPRP,-0.129
17,RRIRSRPPRLPRPRPRPRHAPRP,0.39
18,RRIRSRPPRLPRPRPRPWVMPRP,-0.0894
19,RRIRWRPPRLPRPRPRPTEPPRP,-0.0787
20,RRIRERPPRLPRPRPRPLWGPRP,0.0859
21,RRIRFRPPRLPRPRPRPVNYPRP,0.184
22,RRIRLRPPRLPRPRPRPIDYPRP,-0.0867
23,RRIRWRPPRLPRPRPRPKINPRP,-0.245
24,RRIRHRPPRLPRPRPRPMGMPRP,-0.254
25,RRIRARPPRLPRPRPRPPEVPRP,1.17

row,Sequence,shrunken log2 fold change
1,RRIRERPPRLPRPRPRPFFHPRP,-0.264
2,RRIRARPPRLPRPRPRPQFEPRP,-0.102
3,RRIRYRPPRLPRPRPRPELWPRP,0.13
4,RRIRRRPPRLPRPRPRPPRAPRP,1.17
5,RRIRLRPPRLPRPRPRPCHHPRP,-0.322
6,RRIRNRPPRLPRPRPRPRGDPRP,0.131
7,RRIRERPPRLPRPRPRPGPAPRP,0.439
8,RRIRCRPPRLPRPRPRPCFFPRP,0.392
9,RRIRTRPPRLPRPRPRPISMPRP,-0.262
10,RRIRLRPPRLPRPRPRPVSGPRP,0.525
11,RRIRWRPPRLPRPRPRPKRFPRP,0.729
12,RRIRPRPPRLPRPRPRPLLFPRP,0.0745
13,RRIRERPPRLPRPRPRPQVFPRP,-0.0552
14,RRIRMRPPRLPRPRPRPDDKPRP,1.43
15,RRIRCRPPRLPRPRPRPIAKPRP,0.0637
16,RRIRHRPPRLPRPRPRPCNEPRP,-0.00194
17,RRIRHRPPRLPRPRPRPNSNPRP,-1.16
18,RRIRWRPPRLPRPRPRPFNIPRP,-0.715
19,RRIRDRPPRLPRPRPRPELLPRP,0.011
20,RRIRIRPPRLPRPRPRPREKPRP,0.111
21,RRIRDRPPRLPRPRPRPASNPRP,-0.15
22,RRIRERPPRLPRPRPRPVNNPRP,-0.871
23,RRIRKRPPRLPRPRPRPINYPRP,-0.0959
24,RRIRIRPPRLPRPRPRPKHGPRP,-0.113
25,RRIRSRPPRLPRPRPRPDTNPRP,-0.111

row,Sequence,shrunken log2 fold change
1,RRIRKRPPRLPRPRPRPHHNPRP,-0.421
2,RRIRRRPPRLPRPRPRPMHYPRP,0.117
3,RRIRQRPPRLPRPRPRPGAGPRP,0.451
4,RRIRPRPPRLPRPRPRPPMPPRP,0.442
5,RRIRIRPPRLPRPRPRPDPYPRP,-0.555
6,RRIRVRPPRLPRPRPRPIPHPRP,-0.307
7,RRIRERPPRLPRPRPRPHYEPRP,-0.231
8,RRIRGRPPRLPRPRPRPKRAPRP,1.11
9,RRIRPRPPRLPRPRPRPWQPPRP,-0.0506
10,RRIRSRPPRLPRPRPRPSMVPRP,-0.368
11,RRIRFRPPRLPRPRPRPKLRPRP,0.147
12,RRIRGRPPRLPRPRPRPMNRPRP,0.022
13,RRIRTRPPRLPRPRPRPQQKPRP,-0.0118
14,RRIRLRPPRLPRPRPRPESDPRP,-0.0845
15,RRIRDRPPRLPRPRPRPSGHPRP,1.17
16,RRIRERPPRLPRPRPRPRQIPRP,0.0409
17,RRIRIRPPRLPRPRPRPAVNPRP,0.131
18,RRIRARPPRLPRPRPRPMQSPRP,0.43
19,RRIRNRPPRLPRPRPRPMMMPRP,-0.0535
20,RRIRRRPPRLPRPRPRPPASPRP,0.615
21,RRIRGRPPRLPRPRPRPACKPRP,0.923
22,RRIRLRPPRLPRPRPRPISRPRP,0.0488
23,RRIRNRPPRLPRPRPRPYCKPRP,-0.258
24,RRIRQRPPRLPRPRPRPYSHPRP,-0.0388
25,RRIRDRPPRLPRPRPRPWVEPRP,0.105

row,Sequence,shrunken log2 fold change
1,RRIRCRPPRLPRPRPRPLVNPRP,-0.841
2,RRIRYRPPRLPRPRPRPNCIPRP,-0.197
3,RRIRWRPPRLPRPRPRPATPPRP,0.755
4,RRIRNRPPRLPRPRPRPDILPRP,-0.156
5,RRIRKRPPRLPRPRPRPHGAPRP,0.594
6,RRIRCRPPRLPRPRPRPNLKPRP,-0.585
7,RRIRHRPPRLPRPRPRPPHMPRP,-0.115
8,RRIRARPPRLPRPRPRPHWPPRP,0.233
9,RRIRMRPPRLPRPRPRPKNEPRP,0.881
10,RRIRERPPRLPRPRPRPTNMPRP,-0.568
11,RRIRDRPPRLPRPRPRPRCWPRP,0.923
12,RRIRTRPPRLPRPRPRPQHYPRP,-0.691
13,RRIRVRPPRLPRPRPRPERVPRP,-0.107
14,RRIRDRPPRLPRPRPRPNQYPRP,-0.428
15,RRIRIRPPRLPRPRPRPACKPRP,-0.659
16,RRIRARPPRLPRPRPRPTYIPRP,-0.438
17,RRIRQRPPRLPRPRPRPCHMPRP,-0.519
18,RRIRPRPPRLPRPRPRPFRHPRP,-0.191
19,RRIRYRPPRLPRPRPRPMCEPRP,-0.283
20,RRIRDRPPRLPRPRPRPDIWPRP,0.504
21,RRIRHRPPRLPRPRPRPHLRPRP,-0.0385
22,RRIRHRPPRLPRPRPRPEILPRP,-0.00654
23,RRIRCRPPRLPRPRPRPQLFPRP,-0.242
24,RRIRIRPPRLPRPRPRPLNIPRP,-0.925
25,RRIRMRPPRLPRPRPRPVEGPRP,-0.000687

# Source: the supplement of paper PMC9112550, “Optimization of the antimicrobial peptide Bac7 by deep mutational scanning” (BMC Biology, 2022)
